From article PMC6910828 (2019)

Key:
[1] = target: Cy3-labelled, prenylated Cdc42 G12V, GTPγS-bound (Cy3 at the N-terminus (Cy3 N-t labeled LPETGG peptide joined by sortase); geranylgeranyl by in vitro prenylation (C-terminal prenyl moiety); GTPγS-bound); assay: GTPγS-bound; extraction from supported lipid bilayers
[2] = target: Cy3-labelled, prenylated Rho G14V, GTPγS-bound (Cy3 at the N-terminus (Cy3 N-t labeled LPETGG peptide joined by sortase); geranylgeranyl by in vitro prenylation (C-terminal prenyl moiety); GTPγS-bound); assay: as above
[3] = target: Cy3-labelled, prenylated Rho Q63L, GTP-bound (Cy3 at the N-terminus (Cy3 N-t labeled LPETGG peptide joined by sortase); geranylgeranyl by in vitro prenylation (C-terminal prenyl moiety); GTP-bound); assay: GTP-bound; extraction from supported lipid bilayers
[4] = target: Cy3-labelled, prenylated Cdc42 Q61L, GTP-bound (Cy3 at the N-terminus (Cy3 N-t labeled LPETGG peptide joined by sortase); geranylgeranyl by in vitro prenylation (C-terminal prenyl moiety); GTP-bound); assay: as above
[5] = target: Cy3-labelled, prenylated Cdc42, wild type, GDP-bound (Cy3 at the N-terminus (Cy3 N-t labeled LPETGG peptide joined by sortase); geranylgeranyl by in vitro prenylation (C-terminal prenyl moiety); GDP-bound); assay: GDP-bound; extraction from supported lipid bilayers
[6] = target: Cy3-labelled, prenylated Rho, wild type, GDP-bound (Cy3 at the N-terminus (Cy3 N-t labeled LPETGG peptide joined by sortase); geranylgeranyl by in vitro prenylation (C-terminal prenyl moiety); GDP-bound); assay: as above
Sequence of Cy3-labelled, prenylated Rho, wild type, GDP-bound (Cy3 at the N-terminus (Cy3 N-t labeled LPETGG peptide joined by sortase); geranylgeranyl by in vitro prenylation (C-terminal prenyl moiety); GDP-bound) (chain, as listed by the source): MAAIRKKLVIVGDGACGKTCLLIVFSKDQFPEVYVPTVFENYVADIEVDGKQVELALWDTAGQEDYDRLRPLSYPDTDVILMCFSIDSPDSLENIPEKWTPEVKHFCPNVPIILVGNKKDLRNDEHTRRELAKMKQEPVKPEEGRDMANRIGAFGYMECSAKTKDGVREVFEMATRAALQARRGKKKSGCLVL

Sequence of Cy3-labelled, prenylated Cdc42 Q61L, GTP-bound (Cy3 at the N-terminus (Cy3 N-t labeled LPETGG peptide joined by sortase); geranylgeranyl by in vitro prenylation (C-terminal prenyl moiety); GTP-bound) (chain, as listed by the source Q61L): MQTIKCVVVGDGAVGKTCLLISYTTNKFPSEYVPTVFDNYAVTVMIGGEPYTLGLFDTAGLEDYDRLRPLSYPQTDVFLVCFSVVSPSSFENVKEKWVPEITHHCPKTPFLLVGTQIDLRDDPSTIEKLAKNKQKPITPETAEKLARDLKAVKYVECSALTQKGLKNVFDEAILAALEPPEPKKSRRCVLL
Sequence of Cy3-labelled, prenylated Cdc42, wild type, GDP-bound (Cy3 at the N-terminus (Cy3 N-t labeled LPETGG peptide joined by sortase); geranylgeranyl by in vitro prenylation (C-terminal prenyl moiety); GDP-bound) (P60953 whole entry): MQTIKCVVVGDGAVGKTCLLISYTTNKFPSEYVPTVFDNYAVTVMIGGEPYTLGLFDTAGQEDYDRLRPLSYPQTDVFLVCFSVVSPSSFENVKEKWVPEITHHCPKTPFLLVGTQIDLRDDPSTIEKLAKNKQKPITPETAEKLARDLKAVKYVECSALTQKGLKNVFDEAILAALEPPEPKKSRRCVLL
Sequence of Cy3-labelled, prenylated Cdc42 G12V, GTPγS-bound (Cy3 at the N-terminus (Cy3 N-t labeled LPETGG peptide joined by sortase); geranylgeranyl by in vitro prenylation (C-terminal prenyl moiety); GTPγS-bound) (chain, as listed by the source G12V): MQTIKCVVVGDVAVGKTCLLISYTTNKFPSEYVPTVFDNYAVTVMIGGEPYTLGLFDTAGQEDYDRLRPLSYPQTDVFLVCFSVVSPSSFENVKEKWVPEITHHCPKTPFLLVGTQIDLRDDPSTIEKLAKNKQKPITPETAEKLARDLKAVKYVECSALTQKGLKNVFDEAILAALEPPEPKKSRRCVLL
Sequence of Cy3-labelled, prenylated Rho G14V, GTPγS-bound (Cy3 at the N-terminus (Cy3 N-t labeled LPETGG peptide joined by sortase); geranylgeranyl by in vitro prenylation (C-terminal prenyl moiety); GTPγS-bound) (chain, as listed by the source G14V): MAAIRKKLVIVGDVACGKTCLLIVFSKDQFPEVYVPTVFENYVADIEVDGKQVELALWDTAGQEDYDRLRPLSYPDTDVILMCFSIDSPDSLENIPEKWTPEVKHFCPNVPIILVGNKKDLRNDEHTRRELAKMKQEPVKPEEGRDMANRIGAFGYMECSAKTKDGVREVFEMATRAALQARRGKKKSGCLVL
Sequence of Cy3-labelled, prenylated Rho Q63L, GTP-bound (Cy3 at the N-terminus (Cy3 N-t labeled LPETGG peptide joined by sortase); geranylgeranyl by in vitro prenylation (C-terminal prenyl moiety); GTP-bound) (chain, as listed by the source Q63L): as the sequence (chain, as listed by the source G14V) above, with V14G, Q63L counted along it

B1: Xenopus laevis RhoGDI, wild type (natural protein)
chain: MAEHEPTPEQLHQIAAENQDEEHSVDYKPPAQKSIKEIQELDQDDESLRKYKEALLGSLPSSADPEASNVVVTKLTLLCDCAPGPLELDLTGDLEKFKKQSFTLKEGVEYRIKISFKVNKEIVSGLRYQQQTYRKGVRLDRTRYMVGSYGPRVDEYEFLTPIEEAPNGMLARGCYNIKSLFTDDDKSNHLSWEWNLHIKNDWKS
What does the source list for B1?
Kd [1]: 4.95 µM; Kd [2]: 5.43 µM; Kd [3]: 19.6 µM; Kd [4]: 14.4 µM; Kd [5]: 3.41 µM; Kd [6]: 5.77 µM
